Source: patent US20110301073

How the values were obtained:
[1] = system: TALEN 101167 (synthetic (Xanthomonas TALE)); experiment: cell_activity; conditions: paired with 101239; 5.3% with 101166
[2] = system: TALEN 101238 (HD half repeat) (synthetic (Xanthomonas TALE)); experiment: cell_activity; conditions: paired with 101236; 8.1% with 101235
[3] = system: TALEN 101234 (HD half repeat) (synthetic (Xanthomonas TALE)); experiment: cell_activity; conditions: paired with 101231
[4] = system: TALEN 101233 (NI half repeat) (synthetic (Xanthomonas TALE)); experiment: cell_activity; conditions: paired with 101151
[5] = system: TALEN 101141 (HD half repeat) (synthetic (Xanthomonas TALE)); experiment: cell_activity; conditions: paired with 101139
[6] = system: TALEN 101126 (synthetic (Xanthomonas TALE)); experiment: cell_activity; conditions: paired with 101124
[7] = system: R0-VP16 (no tandem repeats) (Xanthomonas sp. (engineered)); experiment: cell_activity; conditions: no tandem repeats
[8] = system: nR23570S-dNC (17.5 repeats without N- and C-caps) (Xanthomonas sp. (engineered)); experiment: cell_activity; conditions: mock 1.48; caps deleted
[9] = system: RPD1 TALEN 101393 (synthetic (Xanthomonas TALE)); experiment: cell_activity; conditions: paired with 101389; site given 3'-5', reversed here
[10] = system: TALE13 C+11 FokI (Xanthomonas axonopodis); experiment: cleavage_in_vitro; conditions: two sites, 12 bp spacer
[11] = system: TALE13 C+17 FokI (Xanthomonas axonopodis); experiment: cleavage_in_vitro; conditions: two sites, 12 bp spacer
[12] = system: TALE13 C+5 FokI (Xanthomonas axonopodis); experiment: cleavage_in_vitro; conditions: two sites, 12 bp spacer
[13] = system: TALE13 C-2 FokI (Xanthomonas axonopodis); experiment: cleavage_in_vitro; conditions: two sites, 12 bp spacer
[14] = system: TALEN 101231 (NI half repeat) (synthetic (Xanthomonas TALE)); experiment: cell_activity; conditions: paired with 101234
[15] = system: RPD1 TALEN 101388 (synthetic (Xanthomonas TALE)); experiment: cell_activity; conditions: paired with 101391; Neuro 2A
[16] = system: TALEN 101239 (HD half repeat) (synthetic (Xanthomonas TALE)); experiment: cell_activity; conditions: paired with 101167; 11.2% with 101240
[17] = system: TALEN 101139 (synthetic (Xanthomonas TALE)); experiment: cell_activity; conditions: paired with 101141
[18] = system: TALEN 101240 (HD half repeat) (synthetic (Xanthomonas TALE)); experiment: cell_activity; conditions: paired with 101239; 10.7% with 101166
[19] = system: TALEN 101236 (HD half repeat) (synthetic (Xanthomonas TALE)); experiment: cell_activity; conditions: paired with 101238; 2.5% with 101237
[20] = system: TALEN 101235 (HD half repeat) (synthetic (Xanthomonas TALE)); experiment: cell_activity; conditions: paired with 101238
[21] = system: TALE test backbone, repeat 5 RVD AA (synthetic (Xanthomonas TALE)); conditions: ELISA
[22] = system: TALE test backbone, repeat 5 RVD AD (synthetic (Xanthomonas TALE)); conditions: ELISA
[23] = system: TALE test backbone, repeat 5 RVD AE (synthetic (Xanthomonas TALE)); conditions: ELISA
[24] = system: TALE test backbone, repeat 5 RVD AN (synthetic (Xanthomonas TALE)); conditions: ELISA
[25] = system: TALE test backbone, repeat 5 RVD AT (synthetic (Xanthomonas TALE)); conditions: ELISA
[26] = system: TALE test backbone, repeat 5 RVD DH (synthetic (Xanthomonas TALE)); conditions: ELISA
[27] = system: TALE test backbone, repeat 5 RVD DK (synthetic (Xanthomonas TALE)); conditions: ELISA
[28] = system: TALE test backbone, repeat 5 RVD GG (synthetic (Xanthomonas TALE)); conditions: ELISA
[29] = system: TALE test backbone, repeat 5 RVD HA (synthetic (Xanthomonas TALE)); conditions: ELISA
[30] = system: TALE test backbone, repeat 5 RVD HD, standard framework (SEQ 333) (Xanthomonas sp. (engineered)); conditions: RVD HD
[31] = system: TALE test backbone, repeat 5 RVD HG (synthetic (Xanthomonas TALE)); conditions: ELISA
[32] = system: TALE test backbone, repeat 5 RVD HI (Xanthomonas sp. (engineered)); conditions: RVD HI
[33] = system: TALE test backbone, repeat 5 RVD HN (synthetic (Xanthomonas TALE)); conditions: ELISA
[34] = system: TALE test backbone, repeat 5 RVD IA (synthetic (Xanthomonas TALE)); conditions: ELISA
[35] = system: TALE test backbone, repeat 5 RVD IG (synthetic (Xanthomonas TALE)); conditions: ELISA
[36] = system: TALE test backbone, repeat 5 RVD IP (synthetic (Xanthomonas TALE)); conditions: ELISA
[37] = system: TALE test backbone, repeat 5 RVD KD (synthetic (Xanthomonas TALE)); conditions: ELISA
[38] = system: TALE test backbone, repeat 5 RVD KG (synthetic (Xanthomonas TALE)); conditions: ELISA
[39] = system: TALE test backbone, repeat 5 RVD KI (Xanthomonas sp. (engineered)); conditions: RVD KI
[40] = system: TALE test backbone, repeat 5 RVD KS (synthetic (Xanthomonas TALE)); conditions: ELISA
[41] = system: TALE test backbone, repeat 5 RVD KT (synthetic (Xanthomonas TALE)); conditions: ELISA
[42] = system: TALE test backbone, repeat 5 RVD LA (synthetic (Xanthomonas TALE)); conditions: ELISA
[43] = system: TALE test backbone, repeat 5 RVD NA (synthetic (Xanthomonas TALE)); conditions: ELISA
[44] = system: TALE test backbone, repeat 5 RVD ND (synthetic (Xanthomonas TALE)); conditions: ELISA
[45] = system: TALE test backbone, repeat 5 RVD NG (Xanthomonas sp. (engineered)); conditions: RVD NG
[46] = system: TALE test backbone, repeat 5 RVD NI (Xanthomonas sp. (engineered)); conditions: RVD NI
[47] = system: TALE test backbone, repeat 5 RVD NN (Xanthomonas sp. (engineered)); conditions: RVD NN
[48] = system: TALE test backbone, repeat 5 RVD NS (synthetic (Xanthomonas TALE)); conditions: ELISA
[49] = system: TALE test backbone, repeat 5 RVD PW (Xanthomonas sp. (engineered)); conditions: RVD PW; 0.00 on all four bases
[50] = system: TALE test backbone, repeat 5 RVD QA (synthetic (Xanthomonas TALE)); conditions: ELISA
[51] = system: TALE test backbone, repeat 5 RVD QG (synthetic (Xanthomonas TALE)); conditions: ELISA
[52] = system: TALE test backbone, repeat 5 RVD RA (synthetic (Xanthomonas TALE)); conditions: ELISA
[53] = system: TALE test backbone, repeat 5 RVD RG (synthetic (Xanthomonas TALE)); conditions: ELISA
[54] = system: TALE test backbone, repeat 5 RVD RI (synthetic (Xanthomonas TALE)); conditions: ELISA
[55] = system: TALE test backbone, repeat 5 RVD SG (synthetic (Xanthomonas TALE)); conditions: ELISA
[56] = system: TALE test backbone, repeat 5 RVD SN (synthetic (Xanthomonas TALE)); conditions: ELISA
[57] = system: TALE test backbone, repeat 5 RVD TA (synthetic (Xanthomonas TALE)); conditions: ELISA
[58] = system: TALE test backbone, repeat 5 RVD TP (synthetic (Xanthomonas TALE)); conditions: ELISA
[59] = system: TALE test backbone, repeat 5 RVD VG (synthetic (Xanthomonas TALE)); conditions: ELISA
[60] = system: TALE test backbone, repeat 5 RVD YG (synthetic (Xanthomonas TALE)); conditions: ELISA
[61] = system: TALEN 101151 (synthetic (Xanthomonas TALE)); experiment: cell_activity; conditions: paired with 101233
[62] = system: TALEN 101156 (synthetic (Xanthomonas TALE)); experiment: cell_activity; conditions: paired with 101230
[63] = system: RPD1 TALEN 101390 (synthetic (Xanthomonas TALE)); experiment: cell_activity; conditions: paired with 101391; printed site lacks one A relative to the locus
[64] = system: TALEN 101237 (NK half repeat) (synthetic (Xanthomonas TALE)); experiment: cell_activity; conditions: paired with 101236
[65] = system: TALEN 101124 (synthetic (Xanthomonas TALE)); experiment: cell_activity; conditions: paired with 101126
[66] = system: TALEN 101166 (synthetic (Xanthomonas TALE)); experiment: cell_activity; conditions: paired with 101240; 5.3% with 101167
[67] = system: TALEN 101230 (HD half repeat) (synthetic (Xanthomonas TALE)); experiment: cell_activity; conditions: paired with 101156
[68] = system: RPD1 TALEN 101391 (synthetic (Xanthomonas TALE)); experiment: cell_activity; conditions: paired with 101390; site given 3'-5', reversed here
[69] = system: RPD1 TALEN 101389 (synthetic (Xanthomonas TALE)); experiment: cell_activity; conditions: paired with 101393; Neuro 2A

Sequence: CGTTGCCCCCGCCCT (double strand) [101167 site]
- activity [1]: 13.1 % NHEJ

Sequence: CGGGGATGATCTAC (double strand) [101238 site]
- activity [2]: 9.2 % NHEJ

Sequence: ACCGCTGTGCTCCTGGC (double strand) [101234 site]
- activity [3]: 10 % NHEJ

Sequence: GCTCCTGGCCCTTGCA (double strand) [101233 site]
- activity [4]: 13.3 % NHEJ

Sequence: TCCTAGAAGGGCAGGC (double strand) [101141 site]
- activity [5]: 6.7 % NHEJ

Sequence: GACCCTGCCTGCT (double strand) [101126 site]
- activity [6]: 2.2 % NHEJ

Sequence: GGAGCCATCTGGCCGGGT (double strand) [NT-L target (NTF3 promoter)]
- activity (fold activation) [7]: 1
- activity (fold activation) [8]: 1.96

Sequence: TGAACTAGTGGGAGTGTT (double strand) [101393 site]
- activity (relative DLSSA units) [9]: 9.9

Sequence: TATAAATACCTTCT (double strand) [TALE13 target]
- activity [10]: 98.5 % cleavage
- activity [11]: 97.8 % cleavage
- activity [12]: 99.3 % cleavage
- activity [13]: 1.1 % cleavage

Sequence: GGCACTCCGCACCCCCA (double strand) [101231 site]
- activity [14]: 10 % NHEJ

Sequence: TTATTTGAAGAAACT (double strand) [101388 site]
- activity (relative DLSSA units) [15]: 7.6

Sequence: ATGAGCGGCCCCGCC (double strand) [101239 site]
- activity [16]: 13.1 % NHEJ

Sequence: GGGCTCTCCCATGCAT (double strand) [101139 site]
- activity [17]: 6.7 % NHEJ

Sequence: GAATCGTTGCCCCCGC (double strand) [101240 site]
- activity [18]: 11.2 % NHEJ

Sequence: ACGCCGTGGAAAGGCC (double strand) [101236 site]
- activity [19]: 9.2 % NHEJ

Sequence: ACGCCGTGGAAAGGC (double strand) [101235 site]
- activity [20]: 8.1 % NHEJ

Sequence: TTGACAATCCT (double strand) [CAA target]
- binding signal (normalized ELISA) [21]: 0.34
- binding signal (normalized ELISA) [22]: 0.02
- binding signal (normalized ELISA) [23]: 0
- binding signal (normalized ELISA) [24]: 0.51
- binding signal (normalized ELISA) [25]: 1.29
- binding signal (normalized ELISA) [26]: 0.01
- binding signal (normalized ELISA) [27]: 0
- binding signal (normalized ELISA) [28]: 0.49
- binding signal (normalized ELISA) [29]: 0.46
- binding signal (normalized ELISA) [30]: 0.15
- binding signal (normalized ELISA) [31]: 0.38
- binding signal (normalized ELISA) [32]: 0.67
- binding signal (normalized ELISA) [33]: 0.5
- binding signal (normalized ELISA) [34]: 0.15
- binding signal (normalized ELISA) [35]: 0.04
- binding signal (normalized ELISA) [36]: 0.04
- binding signal (normalized ELISA) [37]: 0.06
- binding signal (normalized ELISA) [38]: 0.47
- binding signal (normalized ELISA) [39]: 0.75
- binding signal (normalized ELISA) [40]: 0.95
- binding signal (normalized ELISA) [41]: 1
- binding signal (normalized ELISA) [42]: 0.02
- binding signal (normalized ELISA) [43]: 0.59
- binding signal (normalized ELISA) [44]: 0.06
- binding signal (normalized ELISA) [45]: 0.48
- binding signal (normalized ELISA) [46]: 0.6
- binding signal (normalized ELISA) [47]: 0.47
- binding signal (normalized ELISA) [48]: 0.51
- binding signal (normalized ELISA) [49]: 0
- binding signal (normalized ELISA) [50]: 0.2
- binding signal (normalized ELISA) [51]: 0.21
- binding signal (normalized ELISA) [52]: 0.73
- binding signal (normalized ELISA) [53]: 0.32
- binding signal (normalized ELISA) [54]: 0.65
- binding signal (normalized ELISA) [55]: 0.36
- binding signal (normalized ELISA) [56]: 0.43
- binding signal (normalized ELISA) [57]: 0.15
- binding signal (normalized ELISA) [58]: 0.16
- binding signal (normalized ELISA) [59]: 0.05
- binding signal (normalized ELISA) [60]: 0.12

Sequence: CCGCACCCCCAGCT (double strand) [101151 site]
- activity [61]: 13.3 % NHEJ

Sequence: TACCGCTGTGCTCCT (double strand) [101156 site]
- activity [62]: 4.9 % NHEJ

Sequence: TTTGAAGAACTATATT (double strand) [101390 site]
- activity (relative DLSSA units) [63]: 9.7

Sequence: CGGGGATGATCTACGG (double strand) [101237 site]
- activity [64]: 2.5 % NHEJ

Sequence: GCAGCTGCCCAGACCT (double strand) [101124 site]
- activity [65]: 2.2 % NHEJ

Sequence: GAGCGGCCCCGCCCGT (double strand) [101166 site]
- activity [66]: 10.7 % NHEJ

Sequence: GGCACTCCGCACCCC (double strand) [101230 site]
- activity [67]: 4.9 % NHEJ

Sequence: TGGGAGTGTTGCAT (double strand) [101391 site]
- activity (relative DLSSA units) [68]: 9.7

Sequence: TTATTTGAAGAAACTAT (double strand) [101389 site]
- activity (relative DLSSA units) [69]: 9.9
